We go through one variant from IntAct's records for PubMed 26192437.

B1: CDK5 regulatory subunit-associated protein 2 (Homo sapiens), Q96SN8 (parent)
chain: MMDLVLEEDVTVPGTLSGCSGLVPSVPDDLDGINPNAGLGNGLLPNVSEETVSPTRARNMKDFENQITELKKENFNLKLRIYFLEERMQQEFHGPTEHIYKTNIELKVEVESLKRELQEREQLLIKASKAVESLAEAGGSEIQRVKEDARKKVQQVEDLLTKRILLLEKDVTAAQAELEKAFAGTETEKALRLRLESKLSEMKKMHEGDLAMALVLDEKDRLIEELKLSLKSKEALIQCLKEEKSQMACPDENVSSGELRGLCAAPREEKERETEAAQMEHQKERNSFEERIQALEEDLREKEREIATEKKNSLKRDKAIQGLTMALKSKEKKVEELNSEIEKLSAAFAKAREALQKAQTQEFQGSEDYETALSGKEALSAALRSQNLTKSTENHRLRRSIKKITQELSDLQQERERLEKDLEEAHREKSKGDCTIRDLRNEVEKLRNEVNEREKAMENRYKSLLSESNKKLHNQEQVIKHLTESTNQKDVLLQKFNEKDLEVIQQNCYLMAAEDLELRSEGLITEKCSSQQPPGSKTIFSKEKKQSSDYEELIQVLKKEQDIYTHLVKSLQESDSINNLQAELNKIFALRKQLEQDVLSYQNLRKTLEEQISEIRRREEESFSLYSDQTSYLSICLEENNRFQVEHFSQEELKKKVSDLIQLVKELYTDNQHLKKTIFDLSCMGFQGNGFPDRLASTEQTELLASKEDEDTIKIGEDDEINFLSDQHLQQSNEIMKDLSKGGCKNGYLRHTESKISDCDGAHAPGCLEEGAFINLLAPLFNEKATLLLESRPDLLKVVRELLLGQLFLTEQEVSGEHLDGKTEKTPKQKGELVHFVQTNSFSKPHDELKLSCEAQLVKAGEVPKVGLKDASVQTVATEGDLLRFKHEATREAWEEKPINTALSAEHRPENLHGVPGWQAALLSLPGITNREAKKSRLPILIKPSRSLGNMYRLPATQEVVTQLQSQILELQGELKEFKTCNKQLHQKLILAEAVMEGRPTPDKTLLNAQPPVGAAYQDSPGEQKGIKTTSSVWRDKEMDSDQQRSYEIDSEICPPDDLASLPSCKENPEDVLSPTSVATYLSSKSQPSAKVSVMGTDQSESINTSNETEYLKQKIHDLETELEGYQNFIFQLQKHSQCSEAIITVLCGTEGAQDGLSKPKNGSDGEEMTFSSLHQVRYVKHVKILGPLAPEMIDSRVLENLKQQLEEQEYKLQKEQNLNMQLFSEIHNLQNKFRDLSPPRYDSLVQSQARELSLQRQQIKDGHGICVISRQHMNTMIKAFEELLQASDVDYCVAEGFQEQLNQCAELLEKLEKLFLNGKSVGVEMNTQNELMERIEEDNLTYQHLLPESPEPSASHALSDYETSEKSFFSRDQKQDNETEKTSVMVNSFSQDLLMEHIQEIRTLRKRLEESIKTNEKLRKQLERQGSEFVQGSTSIFASGSELHSSLTSEIHFLRKQNQALNAMLIKGSRDKQKENDKLRESLSRKTVSLEHLQREYASVKEENERLQKEGSEKERHNQQLIQEVRCSGQELSRVQEEVKLRQQLLSQNDKLLQSLRVELKAYEKLDEEHRRLREASGEGWKGQDPFRDLHSLLMEIQALRLQLERSIETSSTLQSRLKEQLARGAEKAQEGALTLAVQAVSIPEVPLQPDKHDGDKYPMESDNSFDLFDSSQAVTPKSVSETPPLSGNDTDSLSCDSGSSATSTPCVSRLVTGHHLWASKNGRHVLGLIEDYEALLKQISQGQRLLAEMDIQTQEAPSSTSQELGTKGPHPAPLSKFVSSVSTAKLTLEEAYRRLKLLWRVSLPEDGQCPLHCEQIGEMKAEVTKLHKKLFEQEKKLQNTMKLLQLSKRQEKVIFDQLVVTHKILRKARGNLELRPGGAHPGTCSPSRPGS

The variants in this assay derive from B1. Conditions: with tbg1_human TUBG1, P23258.
Chain of tbg1_human TUBG1, P23258 (P23258 whole entry): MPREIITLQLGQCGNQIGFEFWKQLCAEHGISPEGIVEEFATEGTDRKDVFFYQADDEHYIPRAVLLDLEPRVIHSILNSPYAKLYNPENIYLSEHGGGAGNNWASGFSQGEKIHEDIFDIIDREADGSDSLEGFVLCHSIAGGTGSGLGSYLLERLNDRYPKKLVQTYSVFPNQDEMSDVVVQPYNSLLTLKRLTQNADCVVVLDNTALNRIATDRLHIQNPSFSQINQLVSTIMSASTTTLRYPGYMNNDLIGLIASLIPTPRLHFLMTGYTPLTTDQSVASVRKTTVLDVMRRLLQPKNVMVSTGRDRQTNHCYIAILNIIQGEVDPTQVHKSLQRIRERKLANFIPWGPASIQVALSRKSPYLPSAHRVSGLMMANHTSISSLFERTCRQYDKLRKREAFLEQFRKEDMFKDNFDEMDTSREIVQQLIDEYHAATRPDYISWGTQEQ
As to S140A, the “effect of a mutation on the interaction” value is reported as “decreasing interaction strength”.
